From the supplement of paper PMC9233669
Fewer inactive variants are shown than the library holds.

Key:
biotinyl-Ile-oxazolone = assay: self-aminoacylation, catalytic enhancement (BIO) (fold over background); higher = more active; k-Seq, kA / k0A0; sequences stand for … in GGGAAUGGAUCCACAUCUACGAAUUC…UUCACUGCAGACUUGACGAAGCUG
How it was run: (§1)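 Mutagenized RNA pools (0.43 μM; 21-nt variable region) were treated with 2–1250 μM of each biotinyl-aminoacyl-oxazolone. Conditions were 50 μL HEPES/NaCl/KCl/MgCl2/CaCl2 buffer, 5% acetonitrile, pH 6.9–7.0, room temperature, 90 minutes. Catalytic enhancement, the median kA relative to the uncatalyzed rate, was derived from streptavidin capture, qPCR and Illumina sequencing.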

biotinyl-Leu-oxazolone = assay: self-aminoacylation, catalytic enhancement (BLO) (fold over background); higher = more active; k-Seq, kA / k0A0; sequences stand for … in GGGAAUGGAUCCACAUCUACGAAUUC…UUCACUGCAGACUUGACGAAGCUG
How it was run: as §1

biotinyl-Met-oxazolone = assay: self-aminoacylation, catalytic enhancement (BMO) (fold over background); higher = more active; k-Seq, kA / k0A0; sequences stand for … in GGGAAUGGAUCCACAUCUACGAAUUC…UUCACUGCAGACUUGACGAAGCUG
How it was run: as §1

biotinyl-Phe-oxazolone = assay: self-aminoacylation, catalytic enhancement (BFO) (fold over background); higher = more active; k-Seq, kA / k0A0; sequences stand for … in GGGAAUGGAUCCACAUCUACGAAUUC…UUCACUGCAGACUUGACGAAGCUG
How it was run: as §1

biotinyl-Val-oxazolone = assay: self-aminoacylation, catalytic enhancement (BVO) (fold over background); higher = more active; k-Seq, kA / k0A0; sequences stand for … in GGGAAUGGAUCCACAUCUACGAAUUC…UUCACUGCAGACUUGACGAAGCUG
How it was run: as §1

biotinyl-Trp-oxazolone = assay: self-aminoacylation, catalytic enhancement (BWO) (fold over background); higher = more active; k-Seq, kA / k0A0; sequences stand for … in GGGAAUGGAUCCACAUCUACGAAUUC…UUCACUGCAGACUUGACGAAGCUG
How it was run: as §1

Row | Sequence | self-aminoacylation (biotinyl-Ile-oxazolone) | self-aminoacylation (biotinyl-Leu-oxazolone) | self-aminoacylation (biotinyl-Met-oxazolone) | self-aminoacylation (biotinyl-Phe-oxazolone) | self-aminoacylation (biotinyl-Val-oxazolone) | self-aminoacylation (biotinyl-Trp-oxazolone)
1 | AUUACCCGGGUCAGCGAGUGA [Fam2.1 aminoacylation ribozyme variant] | 5.75 | 7.97 | 8.03 | 55.5 | 5.24 | 10.2
2 | AUUACCCGGGUCAUCGAGUGG [Fam2.1 aminoacylation ribozyme variant] | 1.25 | 1.92 | 1.63 | 10.1 | 1.81 | 2.45
3 | AUUACCCGGGUCAUCUAGUGA [Fam2.1 aminoacylation ribozyme variant] | 4.46 | 11 | 9.33 | 70.8 | 5.08 | 11.2
4 | AUUACCCGGGUCAUGGAGUGA [Fam2.1 aminoacylation ribozyme variant] | 2.82 | 4.59 | 4.26 | 25.8 | 2.87 | 4.98
5 | AUUACCCGGGUCCUCGAGUGA [Fam2.1 aminoacylation ribozyme variant] | 3.5 | 7.78 | 5.42 | 47.4 | 3.84 | 7.11
6 | AUUACCCUAGUCAUCGAAUGA [Fam2.1 aminoacylation ribozyme variant] | 0.919 | 0.924 | 1.02 | 0.87 | 1.06 | 0.469
7 | AUUACCCUAGUCAUCGAGUUA [Fam2.1 aminoacylation ribozyme variant] | 0.922 | 0.9 | 0.978 | 1.05 | 1.17 | 0.53
8 | AUUACCCUAGUCCUCGAGUGA [Fam2.1 aminoacylation ribozyme variant] | 2.2 | 3.93 | 4.15 | 15.9 | 2.34 | 4.08
9 | AUUACCCUAGUCUUCGAGUGA [Fam2.1 aminoacylation ribozyme variant] | 3.09 | 5 | 5.54 | 24.6 | 3.22 | 7.87
10 | AUUACCCUAUUCAUCGAGUGA [Fam2.1 aminoacylation ribozyme variant] | 2.37 | 4.15 | 4.25 | 17.3 | 2.66 | 6.86
11 | AUUACCCUCAUCAUCGAGUGA [Fam2.1 aminoacylation ribozyme variant] | 4.69 | 10.7 | 10.5 | 74.1 | 5.02 | 11.9
12 | AUUACCCUCGCCAUCGAGUGA [Fam2.1 aminoacylation ribozyme variant] | 3.71 | 7.31 | 6.67 | 41.1 | 3.97 | 8.23
13 | AUUACCCUCGUCAUCGAGUGU [Fam2.1 aminoacylation ribozyme variant] | 1.34 | 2 | 1.88 | 1.56 | 1.4 | 1.49
14 | AUUACCCUGACCAUCGAGUGA [Fam2.1 aminoacylation ribozyme variant] | 3.01 | 4.95 | 4.2 | 8.94 | 2.95 | 5.06
15 | AUUACCCUGAGCAUCGAGUGA [Fam2.1 aminoacylation ribozyme variant] | 2.06 | 3.99 | 4.43 | 8.97 | 2.45 | 4.96
16 | AUUACCCUGAUAAUCGAGUGA [Fam2.1 aminoacylation ribozyme variant] | 4.12 | 10.3 | 9.64 | 39.8 | 4.59 | 11.1
17 | AUUACCCUGAUCAUCGAGAGA [Fam2.1 aminoacylation ribozyme variant] | 1.02 | 0.765 | 0.577 | 0.905 | 0.913 | 0.629
18 | AUUACCCUGAUCAUCGAGGGA [Fam2.1 aminoacylation ribozyme variant] | 1.09 | 1.87 | 1.02 | 0.999 | 1.21 | 2.33
19 | AUUACCCUGCGCAUCGAGUGA [Fam2.1 aminoacylation ribozyme variant] | 2.03 | 5.76 | 5.86 | 20.5 | 2.56 | 6.75
20 | AUUACCCUGCUCAACGAGUGA [Fam2.1 aminoacylation ribozyme variant] | 2.33 | 5.59 | 5.64 | 24.7 | 3.25 | 6.69
21 | AUUACCCUGCUCACCGAGUGA [Fam2.1 aminoacylation ribozyme variant] | 2.76 | 6.12 | 5.34 | 39 | 3.35 | 6.29
22 | AUUACCCUGCUCAUCGACUGA [Fam2.1 aminoacylation ribozyme variant] | 0.856 | 0.475 | 0.687 | 0.34 | 0.82 | 0.534
23 | AUUACCCUGCUCAUCGAGAGA [Fam2.1 aminoacylation ribozyme variant] | 0.834 | 0.702 | 0.805 | 0.77 | 0.975 | 0.698
24 | AUUACCCUGCUCAUCGAGUGU [Fam2.1 aminoacylation ribozyme variant] | 0.991 | 0.916 | 1 | 1.08 | 0.78 | 1.36
25 | AUUACCCUGGACAUAGAGUGA [Fam2.1 aminoacylation ribozyme variant] | 6.45 | 15 | 15.5 | 100 | 6.12 | 15.6
26 | AUUACCCUGGACAUCGAGCGA [Fam2.1 aminoacylation ribozyme variant] | 1.24 | 1.26 | 1.45 | 1.24 | 1.07 | 1.34

Row | Sequence | self-aminoacylation (biotinyl-Ile-oxazolone) | self-aminoacylation (biotinyl-Leu-oxazolone) | self-aminoacylation (biotinyl-Met-oxazolone) | self-aminoacylation (biotinyl-Phe-oxazolone) | self-aminoacylation (biotinyl-Val-oxazolone) | self-aminoacylation (biotinyl-Trp-oxazolone)
27 | AUUACCCUGGACAUCGAGUGU [Fam2.1 aminoacylation ribozyme variant] | 1.51 | 3.35 | 3.35 | 5.95 | 2.66 | 4.38
28 | AUUACCCUGGCCACCGAGUGA [Fam2.1 aminoacylation ribozyme variant] | 2.92 | 5.59 | 4.99 | 35.6 | 3.34 | 3.89
29 | AUUACCCUGGCCAUAGAGUGA [Fam2.1 aminoacylation ribozyme variant] | 2.6 | 4.73 | 4.15 | 5.34 | 2.51 | 6.32
30 | AUUACCCUGGCCAUCAAGUGA [Fam2.1 aminoacylation ribozyme variant] | 0.983 | 0.968 | 1.07 | 1.1 | 1.01 | 1.67
31 | AUUACCCUGGCCAUCGAGUGA [Fam2.1 aminoacylation ribozyme variant] | 2.05 | 3.27 | 3.27 | 11.7 | 2.24 | 3.94
32 | AUUACCCUGGCCAUCGAGUGU [Fam2.1 aminoacylation ribozyme variant] | 1.42 | 2.04 | 3.06 | 2.1 | 1.93 | 2.51
33 | AUUACCCUGGCCAUCGAGUUA [Fam2.1 aminoacylation ribozyme variant] | 1.38 | 1.28 | 1.26 | 0.675 | 1.12 | 0.729
34 | AUUACCCUGGCUAUCGAGUGA [Fam2.1 aminoacylation ribozyme variant] | 1.54 | 2.35 | 2.14 | 4.17 | 1.82 | 2.49
35 | AUUACCCUGGGAAUCGAGUGA [Fam2.1 aminoacylation ribozyme variant] | 2.78 | 5.93 | 5.72 | 26.8 | 3.29 | 4.59
36 | AUUACCCUGGGCAUCGGGUGA [Fam2.1 aminoacylation ribozyme variant] | 5.62 | 11.5 | 10.4 | 65.7 | 6.68 | 10.8
37 | AUUACCCUGGGCAUUGAGUGA [Fam2.1 aminoacylation ribozyme variant] | 4.38 | 11.3 | 9.32 | 58.7 | 4.23 | 11.9
38 | AUUACCCUGGGCGUCGAGUGA [Fam2.1 aminoacylation ribozyme variant] | 1.04 | 1.3 | 1.73 | 1.06 | 1.44 | 1.04
39 | AUUACCCUGGGUAUCGAGUGA [Fam2.1 aminoacylation ribozyme variant] | 4.51 | 10.9 | 9.85 | 57.8 | 4.62 | 11.2
40 | AUUACCCUGGUAAGCGAGUGA [Fam2.1 aminoacylation ribozyme variant] | 2.82 | 4.55 | 5.79 | 42.1 | 3.21 | 6.48
41 | AUUACCCUGGUAAUAGAGUGA [Fam2.1 aminoacylation ribozyme variant] | 6.19 | 16.1 | 16.2 | 125 | 6.61 | 17.9
42 | AUUACCCUGGUAAUCGAGUCA [Fam2.1 aminoacylation ribozyme variant] | 0.825 | 0.783 | 0.902 | 0.569 | 0.838 | 0.473
43 | AUUACCCUGGUAAUCGAGUGG [Fam2.1 aminoacylation ribozyme variant] | 1.38 | 2.79 | 2.85 | 2.83 | 1.31 | 2.9
44 | AUUACCCUGGUAUUCGAGUGA [Fam2.1 aminoacylation ribozyme variant] | 3.56 | 7.89 | 7.43 | 42.4 | 3.65 | 9.54
45 | AUUACCCUGGUCAACGAGUAA [Fam2.1 aminoacylation ribozyme variant] | 1.29 | 1.53 | 1.19 | 1.01 | 1.44 | 0.972
46 | AUUACCCUGGUCAACGAGUUA [Fam2.1 aminoacylation ribozyme variant] | 0.971 | 0.662 | 1.26 | 0.836 | 0.947 | 0.529
47 | AUUACCCUGGUCACCAAGUGA [Fam2.1 aminoacylation ribozyme variant] | 3.47 | 6.54 | 6.45 | 34.3 | 3.32 | 7.7
48 | AUUACCCUGGUCACCCAGUGA [Fam2.1 aminoacylation ribozyme variant] | 4.12 | 6.87 | 7.54 | 46.1 | 3.6 | 8.27
49 | AUUACCCUGGUCACCGAGUUA [Fam2.1 aminoacylation ribozyme variant] | 1.64 | 1.26 | 1.52 | 1.81 | 1.75 | 2.34
50 | AUUACCCUGGUCACCGCGUGA [Fam2.1 aminoacylation ribozyme variant] | 6.07 | 16.7 | 14.1 | 98.1 | 7.05 | 16.7
51 | AUUACCCUGGUCAGCGAAUGA [Fam2.1 aminoacylation ribozyme variant] | 1.05 | 1.22 | 1.43 | 0.631 | 1.31 | 1.38
